Data as given in CN101627111A (CENTOCOR INC, dated 2010).

Biological target: human tissue factor on HCT 116 human colon carcinoma cells (human, UniProt P13726 33-295)
Assay: cell-based or functional assay

B1: CNTO 860 produced in YB2/0-derived host cell line C1083B (antibody, human IgG1, kappa, V domains shown)
VH: QVQLVESGGGVVQPGRSLRLSCKASGFNIKDYYMHWVRQAPGKGLEWIGLIDPENGNTIYDPKFQGRFTISADNSKNTLFLQMDSLRPEDTAVYYCARDNSYYFDYWGQGTPVTVSS
VL: DIQMTQSPSSLSASVGDRVTITCKASQDIRKYLNWYQQKPGKAPKLLIYYATSLADGVPSRFSGSGSGTDYTFTISSLQPEDIATYYCLQHGESPYTFGQGTKLEITR
modifications: Fc N-glycan about 40% fucosylated
**Q.** For B1, which “ADCC potency (EC50 and maximal lysis) against C463-derived CNTO 860” value is on record?
**A.** 20 to 60 倍
